T1: human LAG-3 expressed on cells (human, UniProt P18627 23-525)
T1 construct: the transgene used on the cells is not tied to it by number; also called hLAG-3; 3A9.hLAG-3
T1 sequence: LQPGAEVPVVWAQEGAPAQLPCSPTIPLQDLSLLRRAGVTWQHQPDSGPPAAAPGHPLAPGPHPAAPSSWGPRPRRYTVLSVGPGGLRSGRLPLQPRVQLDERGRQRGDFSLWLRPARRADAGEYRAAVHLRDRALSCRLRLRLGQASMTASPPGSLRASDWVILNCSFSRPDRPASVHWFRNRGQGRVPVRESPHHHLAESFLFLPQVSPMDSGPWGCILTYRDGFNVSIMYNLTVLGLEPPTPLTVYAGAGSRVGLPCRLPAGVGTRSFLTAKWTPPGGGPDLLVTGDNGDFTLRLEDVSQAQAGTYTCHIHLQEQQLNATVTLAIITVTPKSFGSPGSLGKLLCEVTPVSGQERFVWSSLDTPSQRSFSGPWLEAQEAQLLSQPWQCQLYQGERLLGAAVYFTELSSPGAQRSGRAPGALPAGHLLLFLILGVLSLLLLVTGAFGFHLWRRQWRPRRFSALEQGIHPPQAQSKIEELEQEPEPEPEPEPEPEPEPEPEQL

T2: human LAG-3-hFc (human, UniProt P18627 23-450)
T2 construct: also called human LAG3-Fc; Human LAG-3-Fc; not shown: human Fc
T2 sequence: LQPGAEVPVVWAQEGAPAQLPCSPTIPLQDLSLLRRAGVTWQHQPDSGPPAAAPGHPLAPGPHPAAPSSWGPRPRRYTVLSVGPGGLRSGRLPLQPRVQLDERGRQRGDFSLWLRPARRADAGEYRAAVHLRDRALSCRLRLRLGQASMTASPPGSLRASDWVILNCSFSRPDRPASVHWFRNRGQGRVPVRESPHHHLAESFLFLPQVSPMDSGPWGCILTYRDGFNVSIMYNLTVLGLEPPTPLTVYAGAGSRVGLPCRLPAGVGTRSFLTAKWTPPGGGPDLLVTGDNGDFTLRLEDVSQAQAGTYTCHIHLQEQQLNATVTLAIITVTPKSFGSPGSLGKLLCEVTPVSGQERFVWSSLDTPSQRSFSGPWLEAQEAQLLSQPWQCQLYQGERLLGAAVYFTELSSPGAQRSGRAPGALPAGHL


How the values were obtained:
[1] = biological target: T3, human PD-1 expressed on cells (human, UniProt Q15116 25-288); test: flow cytometry competition: blockade of human PD-L1-hFc binding to CHO-K1 cells expressing human PD-1; PE goat anti-human IgG
T3 construct: the transgene used on the cells is not tied to it by number; also called hPD-1; CHO.hPD-1
T3 sequence (Q15116 25-288 limits assumed): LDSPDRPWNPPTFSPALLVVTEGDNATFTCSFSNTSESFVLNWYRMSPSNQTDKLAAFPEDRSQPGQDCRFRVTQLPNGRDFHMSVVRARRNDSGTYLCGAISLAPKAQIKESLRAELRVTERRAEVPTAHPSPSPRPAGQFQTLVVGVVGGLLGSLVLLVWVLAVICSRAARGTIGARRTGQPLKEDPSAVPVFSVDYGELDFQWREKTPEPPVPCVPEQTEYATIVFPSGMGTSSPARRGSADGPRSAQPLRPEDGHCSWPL
Description: (§1) Ligand competition assays were performed on human PD-1 over-expressing CHO cells. A Nanobody dilution series was prepared in assay buffer: PBS/10% FBS/0.05% sodium azide. […] 2×10⁴ cells/well were seeded in V-bottom 96-well plates and resuspended in 200 μL/well of the Nanobody/ligand dilution. After 90 minutes incubation at 4° C., the cells were washed with 100 μL/well assay buffer and resuspended in 100 μL/well PE-labeled Goat anti-human IgG (Southern Biotech, 2043-09). Samples were incubated for 30 minutes at 4° C., washed, and resuspended in 100 μL/well of 5 nM TOPRO3 (LifeTechnologies, T3606) solution before analysis on FACS CANTO II (BD).

[2] = biological target: T3, human PD-1 expressed on cells; test: flow cytometry on CHO-K1 cells expressing human PD-1; anti-FLAG + PE goat anti-mouse
Description: (§2) Binding to cell-expressed human PD-1 was evaluated on human PD-1 over-expressing CHO cells. A Nanobody dilution series was prepared in assay buffer: PBS/10% FBS/0.05% sodium azide. 1×10⁵ cells/well were transferred to a 96-well V-bottom plate and resuspended in 100 μL Nanobody dilution. After 30 minutes incubation at 4° C., the cells were washed with 100 μL/well assay buffer and resuspended in 100 μL/well of 1 μg/ml anti-FLAG (Sigma, F1804) or anti-HIS (AbD Serotec, MCA 1396). […] Samples were incubated for 30 minutes at 4° C., washed, and resuspended in 100 μL/well of 5 nM TOPRO3 (LifeTechnologies, T3606) solution before analysis on FACS CANTO II (BD).

[3] = biological target: T3, human PD-1 expressed on cells; test: flow cytometry competition: blockade of human PD-L2-hFc binding to CHO-K1 cells expressing human PD-1; PE goat anti-human IgG
Description: as §1

[4] = biological target: T3, human PD-1 expressed on cells; test: cell-based or functional assay
human PD-1-hFc [5] = biological target: T4, human PD-1-hFc (human, UniProt Q15116 25-170); test: SPR, Biacore T100; hPD-1-hFc immobilised on CM5 (303 RU), Nanobody as analyte; Langmuir with mass transport
T4 construct: also called hPD-1-hFc; hPD1-hFc; not shown: human Fc
T4 sequence (Q15116 25-170 limits assumed): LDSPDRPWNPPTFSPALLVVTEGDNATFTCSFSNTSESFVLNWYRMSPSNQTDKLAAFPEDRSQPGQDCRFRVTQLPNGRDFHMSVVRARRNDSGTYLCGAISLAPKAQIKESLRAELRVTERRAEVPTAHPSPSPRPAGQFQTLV
Description: (§3) Kinetic analysis of the Nanobodies was performed by SPR technology, using the Biacore T100 instrument (GE Healthcare). HBS-EP+(0.01 M HEPES pH 7.4, 0.15 M NaCl, 3 mM EDTA, 0.05% v/v Surfactant P20) was used as running buffer and the experiments were performed at 25° C. Two flow channels of a Series S Sensor Chip CM5 were activated with EDC (200 mM)/NHS (50 mM). hPD-1-hFc was injected (4 times) at 5 μg/ml in suitable immobilization buffer (10 mM sodium acetate pH4.5) over one surface to render immobilization levels of 303 RU. After immobilization, surfaces were deactivated with 1M ethanolamine/HCl (pH 8.5). The flow rate during the sensor preparation was set on 5 μl/min.
(§4) After each cycle (i.e. before a new Nanobody injection step) the hPD1-hFc surfaces were regenerated with a 1 minute injection 10 mM Glycine pH1.5 at 45 μl/min. Sensorgram processing and data analysis was performed with Biacore T100 Evaluation Software Version 2.0.4 (GE Healthcare). Sensorgrams showing Nanobody binding were obtained after double referencing by subtracting 1) non-specific binding to reference flow channel and 2) HBS-EP+injection. Processed curves were evaluated via fitting with the model ‘Langmuir with Mass Transport’.

human PD-1-hFc [6] = biological target: T4, human PD-1-hFc; test: SPR, Biacore T100; hPD-1-hFc immobilised on CM5, Nanobody as analyte; Langmuir with mass transport
Description: as §3, §4

[7] = biological target: T1, human LAG-3 expressed on cells; test: flow cytometry on 3A9 cells expressing human LAG-3; anti-FLAG + PE goat anti-mouse
Description: as §2, with “LAG-3” for “PD-1”, “3A9” for “CHO”, “F1804).” for “F1804) or anti-HIS (AbD Serotec, MCA 1396).”

human LAG-3-hFc [8] = biological target: T2, human LAG-3-hFc; test: flow cytometry competition: blockade of 40 nM human LAG-3-hFc binding to MHC class II on Daudi cells; PE goat anti-human IgG
Description: A Nanobody dilution series was prepared in assay buffer: HBSS/2% FBS. Prior to the experiment, Fc receptors on the Daudi cells were blocked with human Fc block (BD Pharmingen, 564220) and 5 μg/mL goat IgG (Jackson ImmunoResearch, 005-000-003) for 30 minutes at 4° C. […] 1×10⁵ cells/well were seeded in V-bottom 96-well plates and resuspended in 100 μL/well of the Nanobody/ligand dilution. After 30 minutes incubation at 4° C., the cells were washed and resuspended in 100 μL/well PE-labeled Goat anti-human IgG (Southern Biotech, 2043-09). Samples were incubated for 15 minutes at 4° C., washed, and resuspended in 100 μL/well of 5 nM TOPRO3 (LifeTechnologies, T3606) solution before analysis on FACS CANTO II (BD).

human LAG-3-hFc [9] = biological target: T2, human LAG-3-hFc; test: SPR, Biacore T100; human LAG3-hFc captured on anti-human IgG(Fc), Nanobody as analyte; Langmuir with mass transport
Description: Kinetic analysis of Nanobodies was performed by surface plasmon resonance (SPR) technology, using the Biacore T100 instrument (GE Healthcare). HBS-EP+(0.01 M HEPES pH 7.4, 0.15 M NaCl, 3 mM EDTA, 0.05% v/v Surfactant P20) was used as running buffer and the experiments were performed at 25° C. Two flow channels of a Series S Sensor Chip CM5 were activated with EDC (200 mM)/NHS (50 mM) and anti-Human IgG(Fc) (GE Healthcare, BR100839) was injected at 5 μg/ml in the supplied immobilization buffer (10 mM sodium acetate pH5.0) to render immobilization levels of approximately 2000 R U. After immobilization, surfaces were deactivated with 1M ethanolamine/HCl (pH 8.5). The flow rate during the sensor preparation was set on 5 μL/min.
Sensorgram processing and data analysis was performed with Biacore T100 Evaluation Software Version 2.0.4 (GE Healthcare). […] Processed curves were evaluated via fitting with the model ‘Langmuir with Mass Transport’.

Binder	IC50 (read off the curve) [1]	IC50 (read off the curve) [3]	Kd (human PD-1-hFc [5])	koff (human PD-1-hFc [5])	kon (human PD-1-hFc [5])	Kd (human PD-1-hFc [6])	koff (human PD-1-hFc [6])	kon (human PD-1-hFc [6])	further results
F023700706 (1PD102C12 (L11V, A14P, A74S, K83R, I89L)-FLAG3-HIS6) (VHH, also called SO 1PD102C12 monomer) VHH: EVQLVESGGGVVQPGGSLRLSCAASGSIASIHAMGWFRQAPGKEREFVAVITWSGGITYYADSVKGRFTISRDNSKNTVYLQMNSLRPEDTALYYCAGDKHQSSWYDYWGQGTLVTVSS	~0.6 nM	~0.6 nM							EC50 (read off the curve) [2]: ~0.9 nM; EC50 (read off the curve), IL-2 promoter luciferase RLU [4]: ~0.9 nM
F023701192 (1PD102C12 (E1D, L11V, A14P, W52aV, N73Q, A74S, K83R, I89L, W100aF)-HIS6) (VHH, monovalent anti-human PD-1 Nanobody variant; not shown: C-terminal HIS6 tag) VHH: DVQLVESGGGVVQPGGSLRLSCAASGSIASIHAMGWFRQAPGKEREFVAVITVSGGITYYADSVKGRFTISRDQSKNTVYLQMNSLRPEDTALYYCAGDKHQSSFYDYWGQGTLVTVSS	~1 nM	~0.9 nM	1.3 nM	0.0032 s⁻¹	2.5e+06 M⁻¹ s⁻¹	1.3 nM	0.0032 s⁻¹	2.5e+06 M⁻¹ s⁻¹	
F023700929 (1PD102C12 (L11V, A14P, A74S, K83R, I89L)-HIS6) (VHH, not shown: C-terminal HIS6 tag) VHH: EVQLVESGGGVVQPGGSLRLSCAASGSIASIHAMGWFRQAPGKEREFVAVITWSGGITYYADSVKGRFTISRDNSKNTVYLQMNSLRPEDTALYYCAGDKHQSSWYDYWGQGTLVTVSS	~1 nM	~1 nM	0.29 nM	0.00059 s⁻¹	2e+06 M⁻¹ s⁻¹	0.29 nM	0.00059 s⁻¹	2e+06 M⁻¹ s⁻¹	
F023700842 (F0237611B09(L11V, A14P, R41P, N43K, A62S, A74S, K83R, V89L)-FLAG3-HIS6) (VHH, also called F023700842-FLAG3-HIS6) VHH: EVQLVESGGGVVQPGGSLRLSCAASGRTFSDYVMGWFRQAPGKEREFVAAISESGGRTHYADSVKGRFTISRDNSKNTLYLQMNSLRPEDTALYYCATTLLWWTSEYAPIKANDYDYWGQGTLVTVSS									EC50 (read off the curve) [7]: ~2 nM; IC50 (read off the curve) (human LAG-3-hFc [8]): ~30 nM; Kd (human LAG-3-hFc [9]): 21 nM; koff (human LAG-3-hFc [9]): 0.019 s⁻¹; kon (human LAG-3-hFc [9]): 920000 M⁻¹ s⁻¹
F0237611B09-FLAG3-HIS6 (VHH, original monovalent anti-human LAG-3 Nanobody; also called F0237611B09-FLAG-His6) VHH: EVQLVESGGGLVQAGGSLRLSCAASGRTFSDYVMGWFRQARGNEREFVAAISESGGRTHYADAVKGRFTISRDNAKNTLYLQMNSLKPEDTAVYYCATTLLWWTSEYAPIKANDYDYWGQGTLVTVSS									EC50 (read off the curve) [7]: ~2 nM; IC50 (read off the curve) (human LAG-3-hFc [8]): ~20 nM

Second part, led by results:

IC50 (read off the curve) [1]	IC50 (read off the curve) [3]	Kd (human PD-1-hFc [5])	koff (human PD-1-hFc [5])	kon (human PD-1-hFc [5])	Kd (human PD-1-hFc [6])	koff (human PD-1-hFc [6])	kon (human PD-1-hFc [6])	Binder	further results
~1 nM	~0.9 nM							F023701190 (1PD102C12 (E1D, L11V, A14P, W52aV, A74S, K83R, I89L, W100aF)-HIS6) (VHH, monovalent anti-human PD-1 Nanobody variant; also called Enhanced SO 1PD102C12 monomer; not shown: C-terminal HIS6 tag) VHH: DVQLVESGGGVVQPGGSLRLSCAASGSIASIHAMGWFRQAPGKEREFVAVITVSGGITYYADSVKGRFTISRDNSKNTVYLQMNSLRPEDTALYYCAGDKHQSSFYDYWGQGTLVTVSS	
~0.3 nM	~0.3 nM							F023700275 (1PD102C12(A14P, A74S, K83R)-FLAG3-HIS6) (VHH, monovalent anti-human PD-1 Nanobody, parent of F023700706) VHH: EVQLVESGGGLVQPGGSLRLSCAASGSIASIHAMGWFRQAPGKEREFVAVITWSGGITYYADSVKGRFTISRDNSKNTVYLQMNSLRPEDTAIYYCAGDKHQSSWYDYWGQGTLVTVSS	EC50 (read off the curve) [2]: ~0.9 nM
~1 nM	~0.9 nM	2.4 nM	0.0075 s⁻¹	3.2e+06 M⁻¹ s⁻¹	2.4 nM	0.0075 s⁻¹	3.2e+06 M⁻¹ s⁻¹	F023701193 (1PD102C12 (E1D, L11V, A14P, W52aV, N73P, A74S, K83R, I89L, W100aF)-HIS6) (VHH, monovalent anti-human PD-1 Nanobody variant; not shown: C-terminal HIS6 tag) VHH: DVQLVESGGGVVQPGGSLRLSCAASGSIASIHAMGWFRQAPGKEREFVAVITVSGGITYYADSVKGRFTISRDPSKNTVYLQMNSLRPEDTALYYCAGDKHQSSFYDYWGQGTLVTVSS	

Source: patent US20260184783A1 (Merck Sharp & Dohme, published 2026)
